In this experiment the target is bovine trypsin (bovine, UniProt P00760 24-246). The experiment can be described thus: cell-based or functional assay.
Sequence of bovine trypsin (P00760 24-246): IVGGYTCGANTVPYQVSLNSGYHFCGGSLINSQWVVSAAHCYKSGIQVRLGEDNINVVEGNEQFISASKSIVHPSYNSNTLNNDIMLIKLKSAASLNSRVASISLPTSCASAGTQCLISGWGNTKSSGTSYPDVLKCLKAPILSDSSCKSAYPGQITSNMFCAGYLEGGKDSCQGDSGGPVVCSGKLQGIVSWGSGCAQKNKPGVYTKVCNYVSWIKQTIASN

B1: native chicken ovomucoid (other)
chain: AEVDCSRFPNATDKEGKDVLVCNKDLRPICGTDGVTYTNDCLLCAYSIEFGTNISKEHDGECKETVPMNCSSYANTTSEDGKVMVLCNRAFNPVCGTDGVTYDNECLLCAHKVEQGASVDKRHDGGCRKELAAVSVDCSEYPKPDCTAEDRPLCGSDNKTYGNKCNFCNAVVESNGTLTLSHFGKC
modifications: complex branched N-linked glycosylation (that includes mannose)
B1 returned a Trypsin inhibition activity of 13700 TIU/g.

The values are drawn from US20230329294A1 (CLARA FOODS, published 2023).
